Source: IntAct's records for PubMed 14517307

Biological target: nat1_yeast NAT1 (UniProt P12945)
Sequence (P12945 whole entry): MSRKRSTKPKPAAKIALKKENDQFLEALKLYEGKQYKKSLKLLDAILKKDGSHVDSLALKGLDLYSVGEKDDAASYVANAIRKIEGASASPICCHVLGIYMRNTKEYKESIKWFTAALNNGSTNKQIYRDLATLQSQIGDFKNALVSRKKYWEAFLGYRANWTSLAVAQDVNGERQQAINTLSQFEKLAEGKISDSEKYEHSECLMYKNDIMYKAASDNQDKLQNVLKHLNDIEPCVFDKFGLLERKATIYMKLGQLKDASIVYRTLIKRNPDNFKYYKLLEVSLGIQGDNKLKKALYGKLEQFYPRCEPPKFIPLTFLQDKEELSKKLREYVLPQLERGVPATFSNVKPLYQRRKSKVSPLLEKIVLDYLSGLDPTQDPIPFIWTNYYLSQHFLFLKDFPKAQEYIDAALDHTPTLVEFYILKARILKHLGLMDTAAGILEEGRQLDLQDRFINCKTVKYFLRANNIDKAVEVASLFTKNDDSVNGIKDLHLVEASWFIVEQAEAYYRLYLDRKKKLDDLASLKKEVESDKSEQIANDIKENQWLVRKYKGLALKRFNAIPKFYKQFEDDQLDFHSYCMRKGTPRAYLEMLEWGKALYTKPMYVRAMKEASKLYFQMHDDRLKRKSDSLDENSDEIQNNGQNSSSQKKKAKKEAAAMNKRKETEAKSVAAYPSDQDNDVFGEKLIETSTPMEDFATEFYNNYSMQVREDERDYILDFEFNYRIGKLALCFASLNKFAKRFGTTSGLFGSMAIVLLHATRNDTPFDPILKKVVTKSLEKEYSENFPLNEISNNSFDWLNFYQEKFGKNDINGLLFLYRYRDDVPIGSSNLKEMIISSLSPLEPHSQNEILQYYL

Sequence of Large ribosomal subunit protein uL4A (Saccharomyces cerevisiae), P10664 S2K (P10664 whole entry S2K): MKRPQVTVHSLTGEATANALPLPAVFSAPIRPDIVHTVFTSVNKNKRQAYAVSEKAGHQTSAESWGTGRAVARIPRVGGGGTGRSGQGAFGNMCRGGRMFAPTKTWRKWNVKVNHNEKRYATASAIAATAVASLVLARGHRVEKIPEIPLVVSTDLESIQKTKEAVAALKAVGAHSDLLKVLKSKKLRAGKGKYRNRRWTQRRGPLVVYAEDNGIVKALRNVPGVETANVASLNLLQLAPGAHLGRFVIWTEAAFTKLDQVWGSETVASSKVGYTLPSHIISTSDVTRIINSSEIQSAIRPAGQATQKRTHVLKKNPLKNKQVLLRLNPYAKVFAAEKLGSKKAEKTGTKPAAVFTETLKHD

**Q.** “Large ribosomal subunit protein uL4A (Saccharomyces cerevisiae), P10664 S2K” was tested. Which “effect of a mutation on the interaction” value did it give?
**A.** increasing interaction
